Consider 94 variants from the supplement of paper PMC10567573.

B1: C9orf25 (parent)
chain: LARKGSLKNGSMGSPVNQQPKKNN
B2: IKZF1 (parent)
chain: HIKLHSGEKPFKCHLCNYACRRRD
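Further: lentivirally expressed fusions sorted by FACS into six bins by GFP to DsRed ratio, PSI derived from sequencing read proportions per bin multiplied by bin number.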

The variants in the first data set derive from B1. The data set can be described thus: protein stability index of a GFP-peptide fusion (GPS, HEK-293T) (PSI 1-6); higher = more stable. The note with it: c terminus: a fixed tail appended.
NARKGSLKNGSMGSPVNQQPKKNN: the protein stability index worked out at 5.07.
In the case of GARKGSLKNGSMGSPVNQQPKKNN, the protein stability index worked out at 5.15.

Another data set covers variants of B2. Described as above. The note with it: c terminus: a fixed tail appended.
As to HIKLHSGEKPFKCHLCNYACRRQD, the protein stability index was found to be 1.71.
Still for that read-out and setting: next, HIKLHSGEKPFKCHLCNYACRRAD: 2.13; HIKLHSGEKPFKCHLCNYACRRHD: 2.12.
As for HIKLHSGEKPFKCHLCNYACRRMD, the protein stability index is 2.4.
For the variant HIKLHSGEKPFKCHLCNYACRRID, the protein stability index was determined as 2.
Same read-out and setting: next, HIKLHSGEKPFKCHLCNYACRRLD: 1.44.
On the same count and under the same terms, as for HIKLHSGEKPFKCHLCNYACRRDD, the figure is 2.18.
Take HIKLHSGEKPFKCHLCNYACRRVD: the protein stability index stood at 2.4.
On the same count and under the same terms, next, HIKLHSGEKPFKCHLCNYACRRKD: 2.26; HIKLHSGEKPFKCHLCNYACRRWD: 2.21; HIKLHSGEKPFKCHLCNYACRRGD: 2.04.
Turning to HIKLHSGEKPFKCHLCNYACRRED, the protein stability index came out at 1.8.
Still for that read-out and setting: next, HIKLHSGEKPFKCHLCNYACRRFD: 2.36.
As to HIKLHSGEKPFKCHLCNYACRRYD, the protein stability index was found to be 1.72.
For HIKLHSGEKPFKCHLCNYACRRND, the protein stability index came out at 1.63.
The same measure, in the same setting: next, HIKLHSGEKPFKCHLCNYACRRSD: 1.87.
Turning to HIKLHSGEKPFKCHLCNYACRRTD, the protein stability index is 1.48.
For the variant HIKLHSGEKPFKCHLCNYACRRPD, the protein stability index stood at 2.02.
On the same count and under the same terms, as for HIKLHSGEKPFKCHLCNYACRRCD, the figure is 2.27.
On the same count and under the same terms, as for HIKLHSGEKPFKCHLCNYACRRRA, the figure is 2.29.
The same measure, in the same setting: as for HIKLHSGEKPFKCHLCNYACRRRP, the figure is 2.09; as for HIKLHSGEKPFKCHLCNYACRRRI, 2.89.
For HIKLHSGEKPFKCHLCNYACRRRN, the protein stability index was 1.76.
Regarding HIKLHSGEKPFKCHLCNYACRRRG, the protein stability index worked out at 2.04.
Take HIKLHSGEKPFKCHLCNYACRRRC: the protein stability index came to 2.22.
Same read-out and setting: as for HIKLHSGEKPFKCHLCNYACRRRR, the figure is 2.22; as for HIKLHSGEKPFKCHLCNYACRRRT, 2.31; as for HIKLHSGEKPFKCHLCNYACRRRE, 1.99.
Same read-out and setting: as for HIKLHSGEKPFKCHLCNYACRRRH, the figure is 2.06.
On the same count and under the same terms, as for HIKLHSGEKPFKCHLCNYACRRRQ, the figure is 1.73; as for HIKLHSGEKPFKCHLCNYACRRRL, 2.01.
Consider HIKLHSGEKPFKCHLCNYACRRRF, for which the protein stability index is 2.54.
HIKLHSGEKPFKCHLCNYACRRRS: the protein stability index was 1.43.
The same measure, in the same setting: as for HIKLHSGEKPFKCHLCNYACRRRV, the figure is 2.39.
Still for that read-out and setting: next, HIKLHSGEKPFKCHLCNYACRRRM: 1.97.
With HIKLHSGEKPFKCHLCNYACRRRK, the protein stability index was 2.48.
Still for that read-out and setting: next, HIKLHSGEKPFKCHLCNYACRRRY: 1.9; HIKLHSGEKPFKCHLCNYACLRRD: 1.59; HIKLHSGEKPFKCHLCNYACTRRD: 2.38.
Still for that read-out and setting: next, HIKLHSGEKPFKCHLCNYACVRRD: 1.3; HIKLHSGEKPFKCHLCNYACPRRD: 2.39; HIKLHSGEKPFKCHLCNYACARRD: 3.46.
As for HIKLHSGEKPFKCHLCNYACDRRD, the protein stability index is 1.29.
Same read-out and setting: as for HIKLHSGEKPFKCHLCNYACSRRD, the figure is 1.99; as for HIKLHSGEKPFKCHLCNYACWRRD, 1.49.
On the same count and under the same terms, next, HIKLHSGEKPFKCHLCNYACFRRD: 2.22; HIKLHSGEKPFKCHLCNYACHRRD: 2.27.
In the case of HIKLHSGEKPFKCHLCNYACQRRD, the protein stability index amounted to 1.15.
On the same count and under the same terms, next, HIKLHSGEKPFKCHLCNYACYRRD: 1.58.
As to HIKLHSGEKPFKCHLCNYACERRD, the protein stability index was found to be 2.27.
Still for that read-out and setting: next, HIKLHSGEKPFKCHLCNYACKRRD: 2.19.
Take HIKLHSGEKPFKCHLCNYACNRRD: the protein stability index was determined as 1.65.
On to HIKLHSGEKPFKCHLCNYACMRRD, for which the protein stability index was 1.79.
Regarding HIKLHSGEKPFKCHLCNYACGRRD, the protein stability index came out at 2.41.
Take HIKLHSGEKPFKCHLCNYACCRRD: the protein stability index turned out to be 1.78.
For HIKLHSGEKPFKCHLCNYACRHRD, the protein stability index came to 2.71.
The same measure, in the same setting: next, HIKLHSGEKPFKCHLCNYACRQRD: 2.2; HIKLHSGEKPFKCHLCNYACRLRD: 1.72; HIKLHSGEKPFKCHLCNYACRARD: 1.68.
Regarding HIKLHSGEKPFKCHLCNYACRTRD, the protein stability index was determined as 2.5.
Still for that read-out and setting: as for HIKLHSGEKPFKCHLCNYACRFRD, the figure is 2.03; as for HIKLHSGEKPFKCHLCNYACRGRD, 1.5.
Same read-out and setting: as for HIKLHSGEKPFKCHLCNYACRCRD, the figure is 1.87.
The same measure, in the same setting: as for HIKLHSGEKPFKCHLCNYACRVRD, the figure is 1.91.
As for HIKLHSGEKPFKCHLCNYACRDRD, the protein stability index amounted to 1.76.
The same measure, in the same setting: next, HIKLHSGEKPFKCHLCNYACRWRD: 3.09; HIKLHSGEKPFKCHLCNYACRSRD: 2.97; HIKLHSGEKPFKCHLCNYACRERD: 1.95.
Still for that read-out and setting: next, HIKLHSGEKPFKCHLCNYACRKRD: 1.95.
The same measure, in the same setting: next, HIKLHSGEKPFKCHLCNYACRMRD: 1.87; HIKLHSGEKPFKCHLCNYACRYRD: 2.05.
In the case of HIKLHSGEKPFKCHLCNYACRPRD, the protein stability index worked out at 1.86.
Still for that read-out and setting: as for HIKLHSGEKPFKCHLCNYACRNRD, the figure is 1.2; as for HIKLHSGEKPFKCHLCNYACRIRD, 1.7.
Still for that read-out and setting: as for HIKLHSGEKPFKCHLCNYASRRRD, the figure is 1.69.
Take HIKLHSGEKPFKCHLCNYALRRRD: the protein stability index stood at 1.63.
The same measure, in the same setting: next, HIKLHSGEKPFKCHLCNYAPRRRD: 3.08.
Consider HIKLHSGEKPFKCHLCNYATRRRD, for which the protein stability index turned out to be 2.08.
Turning to HIKLHSGEKPFKCHLCNYARRRRD, the protein stability index came to 1.96.
Consider HIKLHSGEKPFKCHLCNYAVRRRD, for which the protein stability index stood at 2.89.
On the same count and under the same terms, as for HIKLHSGEKPFKCHLCNYAKRRRD, the figure is 1.64; as for HIKLHSGEKPFKCHLCNYANRRRD, 2.35.
The same measure, in the same setting: next, HIKLHSGEKPFKCHLCNYAGRRRD: 1.96; HIKLHSGEKPFKCHLCNYAHRRRD: 1.94.
Still for that read-out and setting: as for HIKLHSGEKPFKCHLCNYAFRRRD, the figure is 2.25; as for HIKLHSGEKPFKCHLCNYAERRRD, 1.83.
Turning to HIKLHSGEKPFKCHLCNYAARRRD, the protein stability index amounted to 2.41.
The same measure, in the same setting: next, HIKLHSGEKPFKCHLCNYAYRRRD: 1.86; HIKLHSGEKPFKCHLCNYAWRRRD: 2.83; HIKLHSGEKPFKCHLCNYAQRRRD: 2.39.
On the same count and under the same terms, as for HIKLHSGEKPFKCHLCNYAMRRRD, the figure is 2.5; as for HIKLHSGEKPFKCHLCNYADRRRD, 1.59.
